Source: publication PMC2586299 (Developmental cell, 2008)
Changes are numbered by the printed parent chain.

T1: GST-CHMP6 (construct of the VPS4B measurement not stated) (human, UniProt Q96FZ7 1-201)
T1 sequence (looked up): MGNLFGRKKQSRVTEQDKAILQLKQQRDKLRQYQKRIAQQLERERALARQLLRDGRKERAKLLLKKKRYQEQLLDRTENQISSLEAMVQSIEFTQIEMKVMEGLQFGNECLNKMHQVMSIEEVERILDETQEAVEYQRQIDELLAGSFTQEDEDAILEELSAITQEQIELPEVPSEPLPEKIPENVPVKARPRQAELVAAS

T2: full length GST-CHMP6_(1−201) (human, UniProt Q96FZ7 1-201)
T2 sequence (looked up): T1 sequence (looked up)

T3: GST-CHMP6 without the final 20 residues (human, UniProt Q96FZ7 1-181)
T3 sequence (looked up): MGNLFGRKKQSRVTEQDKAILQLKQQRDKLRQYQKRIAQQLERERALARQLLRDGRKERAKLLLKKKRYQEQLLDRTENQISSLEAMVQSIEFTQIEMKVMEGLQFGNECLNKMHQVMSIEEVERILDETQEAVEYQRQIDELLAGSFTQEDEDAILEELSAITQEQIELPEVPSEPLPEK

T4: VPS4A MIT_(L64D) (human, UniProt Q9UN37 1-84, L64D)
T4 sequence (looked up): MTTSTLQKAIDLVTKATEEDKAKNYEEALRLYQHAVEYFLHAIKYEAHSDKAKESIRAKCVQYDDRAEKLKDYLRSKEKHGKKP

B1: VPS4B MIT domain (domain or fragment, human, UniProt O75351 4-82, looked up)
chain: TSPNLQKAIDLASKAAQEDKAGNYEEALQLYQHAVQYFLHVVKYEAQGDKAKQSIRAKCTEYLDRAEKLKEYLKNKEKK
B2: VPS4A MIT domain (VPS4A residues 1−84) (domain or fragment, human, UniProt Q9UN37 1-84, looked up)
chain: T4 sequence (looked up) with D64L

How the values were obtained:
[1] = target: B2; test: NMR solution structure
[2] = target: T1, GST-CHMP6 (construct of the VPS4B …); test: SPR
[3] = target: CHMP6 MIM2 L178D (human); test: SPR
[4] = target: T2, full length GST-CHMP6_(1−201); test: SPR
[5] = target: T3, GST-CHMP6 without the final 20 residues; test: SPR
[6] = target: B2; test: SPR
[7] = target: T4, VPS4A MIT_(L64D); test: SPR

Binder: EQIELPEVPSEPLPEK (peptide, UniProt Q96FZ7 166-181, looked up) [CHMP6_(166−181) MIM2 peptide]
- binding result [1]: binds

Binder: B1
- Kd [2]: 786 ± 6 µM

Binder: B2
- Kd [3]: 44.4 µM
- Kd [4]: 33 ± 7 µM
- Kd [5]: 23.2 ± 0.2 µM

Binder: LPEVPSEPLPEK (domain or fragment, human, UniProt Q96FZ7 170-181, looked up) [GST-CHMP6_(170−181) minimal fragment]
- Kd [6]: 8 ± 0.1 µM

Binder: QEQIELPEVPSEPLPEK (domain or fragment, human, UniProt Q96FZ7 165-181, looked up) [GST-CHMP6_(165−181) fragment]
- Kd [6]: 5.8 ± 0.8 µM
- Kd [7]: 26.1 ± 0.8 µM
